Laboratory results published in patent US7067268.
Blank lines part the entries; values can stand above or below the binder they belong to. No end group written: not given here.

Assays:
P2L-1Ta [1] = experiment: competitive EIA: unlabeled antigen varied against HRP-labeled 19P2 ligand (12-25) on P2L-1Ta
P2L-3Ta [2] = experiment: competitive EIA against HRP-labeled 19P2 ligand (12-25); sentence prints 'P2L-1Ta' but stands in the P2L-3Ta passage and cites FIG. 7(b)
P2L-3Ta [3] = experiment: competitive EIA against HRP-labeled 19P2 ligand (12-25); 'higher' as printed, though 25 nM against 4 nM points to lower
P2L-2Ca [4] = experiment: competitive EIA: unlabeled antigen varied against HRP-labeled 19P2 ligand (17-31) on P2L-2C
P2L-1Ta [5] = experiment: competitive EIA on P2L-1Ta; FIG. 7(a)
P2L-2Ca [6] = experiment: competitive EIA on P2L-2C; ratio of the antigen concentrations giving (B/B0)=0.5
P2L-3Ta [7] = experiment: competitive EIA: unlabeled antigen varied against HRP-labeled 19P2 ligand (12-25) on P2L-3Ta
[8] = molecular target: these antibodies (P2L-1Ta, P2L-3Ta, P2L-2Ta and P2L-4Ta); experiment: competitive EIA against HRP-labeled 19P2 ligand (12-25); P2L-1Ta, P2L-3Ta, P2L-2Ta, P2L-4Ta (FIG. 9)
P2L-1Ca = experiment: competitive EIA: unlabeled antigen varied against HRP-labeled 19P2 ligand (17-31) on P2L-1C

IC50 (P2L-1Ta [1]): 1 nM
IC50 (P2L-3Ta [2]): 25 nM
fold of the reactivity against human 19P2 ligand (1-31) (P2L-3Ta [3]): 6 fold
IC50 (P2L-2Ca [4]): 200 nM
fold of the reactivity against human 19P2 ligand (1-31) (P2L-1Ta [5]): 4 fold
B1: Rat 19P2 ligand (1-31) (peptide)
peptide: SRAHQHSMETRTPDINPAWYTGRGIRPVGRF-NH2

fold of the reactivity against bovine 19P2 ligand (1-31) (P2L-2Ca [6]): 33 fold
fold of the reactivity against rat 19P2 ligand (1-31) (P2L-2Ca [6]): 130 fold
IC50 (P2L-1Ta [1]): 4 nM
antigen concentration detected, (B/B0)=0.9 (P2L-1Ta [1]): 0.1 nM
IC50 (P2L-3Ta [7]): 4 nM
IC50 [8]: 3 to 50 nM
IC50 (P2L-1Ca): 3 nM
IC50 (P2L-2Ca [4]): 1.5 nM
B2: Human 19P2 ligand (1-31) (peptide)
peptide: SRTHRHSMEIRTPDINPAWYASRGIRPVGRX
modifications: C-terminal amide

IC50 (P2L-2Ca [4]): 50 nM
B3: Bovine 19P2 ligand (1-31) (peptide)
peptide: SRAHQHSMEIRTPDINPAWYAGRGIRPVGRF-NH2

IC50 (P2L-1Ta [1]): 4 nM
IC50 (P2L-3Ta [2]): 7 nM
fold of the reactivity against human 19P2 ligand (1-31) (P2L-3Ta [2]): 0.5 fold
B4: Human 19P2 ligand (12-31) (peptide)
peptide: TPDINPAWYASRGIRPVGRF-NH2
